T1: EjNAC3 (Eriobotrya japonica (loquat), UniProt A0A2D3HXD3 1-352)
T1 sequence: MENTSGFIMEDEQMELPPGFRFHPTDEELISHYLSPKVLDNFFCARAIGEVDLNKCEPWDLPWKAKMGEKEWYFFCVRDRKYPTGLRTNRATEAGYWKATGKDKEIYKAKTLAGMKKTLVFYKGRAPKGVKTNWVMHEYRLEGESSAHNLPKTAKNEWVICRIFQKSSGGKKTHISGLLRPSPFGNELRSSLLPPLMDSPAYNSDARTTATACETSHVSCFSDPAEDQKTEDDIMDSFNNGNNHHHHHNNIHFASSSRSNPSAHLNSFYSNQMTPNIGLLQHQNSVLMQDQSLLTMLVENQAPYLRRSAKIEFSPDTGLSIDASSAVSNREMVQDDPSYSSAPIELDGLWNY


Legend:
EjNAC3 [1] = target: T1, EjNAC3; assay: EMSA; 5 mM Mg2+, poly(dI-dC), biotinylated probe 1 nM (legend; Methods 2 nM); LightShift kit binding buffer, 5 mM MgCl2, 2.5% glycerol, 0.05% NP-40, 50 ng/ul poly(dI-dC), 50 ng protein, 20 min room temperature; 6% native PAGE, 0.5x TBE; pH and salt not given; conditions: protein: recombinant; tags: His (pET-32a fusion); chain copies: 2; blunt
EjNAC3 [2] = target: T1, EjNAC3; assay: competition; cold probe 100 or 300 nM vs 1 nM biotinylated probe; reduces shift; LightShift kit binding buffer, 5 mM MgCl2, 2.5% glycerol, 0.05% NP-40, 50 ng/ul poly(dI-dC), 50 ng protein, 20 min room temperature; 6% native PAGE, 0.5x TBE; pH and salt not given; conditions: protein: recombinant; tags: His (pET-32a fusion); chain copies: 2; label: none; blunt

| Binder | binding result (EjNAC3 [1]) | binding result (EjNAC3 [2]) |
| --- | --- | --- |
| EjCAD-like promoter probe (-502 to -454) (dsDNA) DNA 1: GTCCTATACGTAATCTTATACTCCAAATAAAATTAGGAATGCAGCATAA DNA 2: TTATGCTGCATTCCTAATTTTATTTGGAGTATAAGATTACGTATAGGAC | binds |  |
| EjCAD-like promoter cold probe (-502 to -454) (dsDNA) DNA 1: GTCCTATACGTAATCTTATACTCCAAATAAAATTAGGAATGCAGCATAA DNA 2: TTATGCTGCATTCCTAATTTTATTTGGAGTATAAGATTACGTATAGGAC |  | binds |

— PMC5853329, “EjNAC3 transcriptionally regulates chilling-induced lignification of loquat fruit via physical interaction with an atypical CAD-like gene”
